Reference: publication PMC9499541, “Ait1 regulates TORC1 signaling and localization in budding yeast” (eLife, 2022)

B1: GFP-Ait1 (natural protein, S. cerevisiae, UniProt Q12301 1-547, looked up)
chain: MVRLNHAASYFMPIFCSTRPHIVILSALFSISLFSLFYASSELLLHQYDDPLMFKPNSQDYFRTFLLGLFSPFLYYFLKTFLFNINQRFLILNLIVDFPINDVFMLLILIGLAYPQVQDHEGGTIKHKECSWHIIPRQAYIFGISWALGEFTICIIGNLFNYQEIADPNINSGFTHQESANTYCNNNDMSHNDDCGCSTEYRPNVVDRSDITLSKCIEVRNDSSSISNNVYSSEYHPIKPLRSSSSTYGSIRQQPHENKKQLHVPDNSQDDTIIMMNPIDNSLKLTTLDTGDLSFPIDEEQPILKKSFGYTWAVPNENTQNTTKSFTPIKRFIAFSTAYQLVTGLLLMILVVGSNIMLTIGESLILSMYFVYVRGHEGLFTPVVNYFGSRTISNFILCVIIPFISLNFLINTSIYLRRELDDWFNNSQGEFEDDDENTISKRVATNQEYQHPLSANYISMDSPDVINSSPGHFGMNSGQLLGNTTLYYGSLNGDDDDMTNDSALLRFCKKLVKNWRALARNDSFVLGVMVSWSLLVFVTGILSTVYI
notes: Ait1 (Ydl180w), GPCR-like protein of the vacuolar membrane, S. cerevisiae; The strain list is in Supplementary file 3; source: S. cerevisiae (W303) strain carrying GFP-Ait1, in lysate; not shown: GFP, N-terminal, kept

How the values were obtained:
Kog1-FLAG = target: T1, Kog1-FLAG (S. cerevisiae, UniProt P38873 1-1557); test: co-IP; Kog1-FLAG immunopurified on anti-FLAG beads after DSP crosslinking; blot with anti-GFP and anti-FLAG; with and without amino acids, long-term amino acid and glucose starvation, also with 4x protease inhibitors; conditions: partners not purified
T1 construct: Kog1 (Raptor homolog), subunit of TORC1, S. cerevisiae; Bait on anti-FLAG beads; The strain list is in Supplementary file 3; also called Kog1/Raptor; TORC1 subunit Kog1; source: S. cerevisiae (W303) strain carrying Kog1-FLAG, in lysate

GFP-Ait1 = target: B1; test: co-IP; GFP-Ait1 or GFP-Ait1C3v2 immunopurified on anti-GFP beads in nonionic detergent (digitonin) without a crosslinker; blot with anti-Myc and anti-GFP; log phase, 30 min amino acid starvation, long-term amino acid and glucose starvation; conditions: partners not purified

T1 sequence (P38873 whole entry): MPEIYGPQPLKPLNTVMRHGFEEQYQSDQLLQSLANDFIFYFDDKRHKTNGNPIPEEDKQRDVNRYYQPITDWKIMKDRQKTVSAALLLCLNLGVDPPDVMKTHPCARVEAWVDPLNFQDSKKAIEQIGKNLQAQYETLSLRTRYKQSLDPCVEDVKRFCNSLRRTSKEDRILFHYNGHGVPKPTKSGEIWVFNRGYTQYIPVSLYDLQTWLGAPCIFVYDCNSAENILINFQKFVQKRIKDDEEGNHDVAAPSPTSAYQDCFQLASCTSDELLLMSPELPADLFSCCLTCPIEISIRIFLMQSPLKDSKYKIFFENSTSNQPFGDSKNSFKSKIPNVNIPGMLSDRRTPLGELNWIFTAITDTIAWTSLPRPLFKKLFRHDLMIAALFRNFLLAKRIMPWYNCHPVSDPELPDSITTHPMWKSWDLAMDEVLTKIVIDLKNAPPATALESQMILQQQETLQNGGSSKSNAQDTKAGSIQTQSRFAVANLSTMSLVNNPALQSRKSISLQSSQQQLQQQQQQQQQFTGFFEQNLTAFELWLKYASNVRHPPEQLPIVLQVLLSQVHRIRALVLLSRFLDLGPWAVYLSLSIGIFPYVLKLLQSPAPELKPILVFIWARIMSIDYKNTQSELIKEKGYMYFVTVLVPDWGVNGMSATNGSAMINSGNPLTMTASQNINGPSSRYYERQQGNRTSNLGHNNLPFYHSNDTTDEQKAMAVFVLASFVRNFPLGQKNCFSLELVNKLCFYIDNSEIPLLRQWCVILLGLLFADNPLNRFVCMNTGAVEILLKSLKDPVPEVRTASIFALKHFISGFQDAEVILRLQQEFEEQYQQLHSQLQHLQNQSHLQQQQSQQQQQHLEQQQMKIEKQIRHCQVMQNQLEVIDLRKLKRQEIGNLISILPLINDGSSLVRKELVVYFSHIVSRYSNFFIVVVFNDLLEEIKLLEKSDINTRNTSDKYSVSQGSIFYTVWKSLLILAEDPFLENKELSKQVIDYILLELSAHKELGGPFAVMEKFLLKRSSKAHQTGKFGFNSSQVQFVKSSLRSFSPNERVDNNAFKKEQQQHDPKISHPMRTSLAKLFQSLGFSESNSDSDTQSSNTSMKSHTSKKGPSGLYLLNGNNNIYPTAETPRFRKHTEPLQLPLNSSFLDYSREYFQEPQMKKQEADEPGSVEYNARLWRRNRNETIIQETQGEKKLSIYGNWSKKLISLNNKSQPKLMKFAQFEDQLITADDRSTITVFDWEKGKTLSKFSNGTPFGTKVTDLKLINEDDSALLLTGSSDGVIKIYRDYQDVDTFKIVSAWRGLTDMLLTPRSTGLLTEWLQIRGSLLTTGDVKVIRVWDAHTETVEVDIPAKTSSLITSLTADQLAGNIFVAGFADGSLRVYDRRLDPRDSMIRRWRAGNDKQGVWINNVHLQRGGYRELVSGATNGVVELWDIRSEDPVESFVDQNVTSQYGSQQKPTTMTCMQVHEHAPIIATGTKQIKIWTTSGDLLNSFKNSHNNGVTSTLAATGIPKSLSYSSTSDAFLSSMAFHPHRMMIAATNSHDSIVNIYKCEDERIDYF

| Binder | amount copurified after long-term amino acid and glucose starvation, relative to log-phase growth (Kog1-FLAG) | amount copurified after long-term amino acid and glucose starvation, relative to log-phase growth (GFP-Ait1) |
| --- | --- | --- |
| B1 | 50 % of the level found in log-phase growth |  |
| Gtr1-myc (natural protein, S. cerevisiae, UniProt Q00582 1-310, looked up, Gtr1, small GTPase (homolog of RagA/B), S. cerevisiae; also called Gtr1/2; source: S. cerevisiae (W303) strain carrying Gtr1-myc, in lysate) MSSNNRKKLLLMGRSGSGKSSMRSIIFSNYSAFDTRRLGATIDVEHSHLRFLGNMTLNLWDCGGQDVFMENYFTKQKDHIFQMVQVLIHVFDVESTEVLKDIEIFAKALKQLRKYSPDAKIFVLLHKMDLVQLDKREELFQIMMKNLSETSSEFGFPNLIGFPTSIWDESLYKAWSQIVCSLIPNMSNHQSNLKKFKEIMNALEIILFERTTFLVICSSNGENSNENHDSSDNNNVLLDPKRFEKISNIMKNFKQSCTKLKSGFKTLILNNNIYVSELSSNMVCFIVLKDMNIPQELVLENIKKAKEFFQ |  | 60 % of the level found in log-phase growth |
